The data set deals with T1, {Pra}KTFKC plasmin-cleavable peptide, as Cholesterol-KTFKC-PEG2000 (not fully specified).
T1 chain: KTFKC

B1: Human plasmin (protein)
chain: KVYLSECKTGNGKNYRGTMSKTKNGITCQKWSSTSPHRPRFSPATHPSEGLEENYCRNPDNDPQGPWCYTTDPEKRYDYCDILECEEECMHCSGENYDGKISKTMSGLECQAWDSQSPHAHGYIPSKFPNKNLKKNYCRNPDRELRPWCFTTDPNKRWELCDIPRCTTPPPSSGPTYQCLKGTGENYRGNVAVTVSGHTCQHWSAQTPHTHNRTPENFPCKNLDENYCRNPDGKRAPWCHTTNSQVRWEYCKIPSCDSSPVSTEQLAPTAPPELTPVVQDCYHGDGQSYRGTSSTTTTGKKCQSWSSMTPHRHQKTPENYPNAGLTMNYCRNPDADKGPWCFTTDPSVRWEYCNLKKCSGTEASVVAPPPVVLLPDVETPSEEDCMFGNGKGYRGKRATTVTGTPCQDWAAQEPHRHSIFTPETNPRAGLEKNYCRNPDGDVGGPWCYTTNPRKLYDYCDVPQCAAPSFDCGKPQVEPKKCPGRVVGGCVAHPHSWPWQVSLRTRFGMHFCGGTLISPEWVLTAAHCLEKSPRPSSYKVILGAHQEVNLEPHVQEIEVSRLFLEPTRKDIALLKLSSPAVITDKVIPACLPSPNYVVADRTECFITGWGETQGTFGAGLLKEAQLPVIENKVCNRYEFLNGRVQSTELCAGHLAGGTDSCQGDSGGPLVCFEKDKYILQGVTSWGLGCARPNKPGVYVRVSRFVTWIEGVMRNN
Take B1: the “Annexin V staining of immobilized PPNs after plasmin incubation (phosphatidylserine exposure after removal of the PEG cloak)” value is listed as “PPNs incubated with ≥50 nM human plasmin had increased Annexin V staining”.

The record behind these values is US20240108748.
